# Measurements taken from US20250326860A1 (ADAGENE PTE, published 2025).
# Where “and” joins values, the source holds several entries; their conditions need not be identical. Identical values can stand only once.
# T1: human CD20 on cells (human B cells; Raji, SU-DHL-8, SU-DHL-4, A3KAW, NAMALWA) (human, UniProt P11836 1-297)
# T1 construct: whole, on cells
# T1 sequence (looked up): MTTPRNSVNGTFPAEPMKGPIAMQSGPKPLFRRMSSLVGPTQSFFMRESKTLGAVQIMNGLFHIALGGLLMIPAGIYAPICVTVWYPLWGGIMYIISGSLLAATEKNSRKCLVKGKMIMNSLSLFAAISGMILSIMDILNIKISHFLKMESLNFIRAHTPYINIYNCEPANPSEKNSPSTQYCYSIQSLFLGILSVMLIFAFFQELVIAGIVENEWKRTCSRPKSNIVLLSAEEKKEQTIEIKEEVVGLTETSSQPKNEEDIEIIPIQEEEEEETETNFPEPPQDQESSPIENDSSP
# T2: cynomolgus monkey CD20 on B cells (cynomolgus monkey, UniProt M4ZHZ6 1-297)
# T2 construct: whole, on cells
# T2 sequence: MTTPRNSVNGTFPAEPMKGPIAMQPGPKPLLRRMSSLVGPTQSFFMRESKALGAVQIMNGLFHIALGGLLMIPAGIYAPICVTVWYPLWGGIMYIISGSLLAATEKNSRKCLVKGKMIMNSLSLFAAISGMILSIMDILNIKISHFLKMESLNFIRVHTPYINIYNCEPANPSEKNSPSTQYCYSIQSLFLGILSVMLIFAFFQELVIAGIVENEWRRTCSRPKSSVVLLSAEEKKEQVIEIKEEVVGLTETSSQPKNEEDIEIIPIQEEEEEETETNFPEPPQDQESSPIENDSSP
# Experiments:
# [1] = biological target: T1, human CD20 on cells (human B cells; …); experiment: flow cytometry, human B cells
# Protocol: After washing the cells twice with PBS supplemented with 2% FBS, cell surface bound antibody was detected by incubating the cells with APC-labeled mouse anti-human IgG Fc secondary antibody for 30 minutes at 4° C. Cells were washed and detected by FACS using Cytoflex (BeckMan) and data was analyzed by FlowJo.
# [2] = biological target: T3, human CD3 on cells (Jurkat cells, human T cells) (human, UniProt P07766 23-207); experiment: flow cytometry, human CD3+ T cells
# T3 construct: whole, on cells
# T3 sequence (P07766 23-207): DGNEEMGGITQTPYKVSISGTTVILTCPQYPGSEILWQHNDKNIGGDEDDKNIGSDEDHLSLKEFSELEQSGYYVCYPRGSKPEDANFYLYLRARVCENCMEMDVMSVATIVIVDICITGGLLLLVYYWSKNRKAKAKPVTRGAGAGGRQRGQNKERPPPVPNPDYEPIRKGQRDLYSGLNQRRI
# Description: (§1) Human PBMCs were freshly isolated from the blood of healthy donors by density gradient centrifugation using Histopaque-1077 (Sigma). Human CD3+ T cells were further isolated from PBMCs using the Human T Cell Enrichment Kit (Stem Cell Technologies). Monkey PBMCs were isolated from a naïve cynomolgus monkey by density gradient centrifugation using Histopaque-1077 (Sigma). Monkey CD3+ T cells were isolated from PBMCs using the Pan T Cell Isolation Kit Non-Human Primate (Miltenyi Biotec). Purified human or monkey CD3+ T cells were stained with the testing antibodies as the primary antibody and the APC-labelled anti-human-Fc antibody (BioLegend) as the secondary antibody. After washing, the cells were analyzed on the CytoFLEX flow cytometer (Beckman Coulter) and the data was analyzed by FlowJo software.
# [3] = biological target: T4, cynomolgus monkey CD3 on T cells (cynomolgus monkey, UniProt Q95LI5 22-198); experiment: flow cytometry, monkey CD4+ T cells
# T4 construct: whole, on cells
# T4 sequence (Q95LI5 22-198): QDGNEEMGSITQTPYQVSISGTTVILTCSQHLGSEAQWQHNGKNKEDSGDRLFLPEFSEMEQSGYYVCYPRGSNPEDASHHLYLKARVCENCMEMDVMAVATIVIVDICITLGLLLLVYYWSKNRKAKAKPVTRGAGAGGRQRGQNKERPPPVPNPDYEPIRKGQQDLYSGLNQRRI
# Protocol: (§2) Binding of CD20xCD3 bispecific or SAFE-bispecific antibodies to purified human CD3+ T cells was determined by flow cytometry. Briefly, human or monkey PBMC were freshly purified with Ficoll gradient solution—Histopaque 1077 (Sigma) from a healthy donor and CD3+ T cells were isolated using EasySep™ Human T cell Enrichment Kit (StemCell). Before staining, […] human Fc receptors on CD3+ T cells were blocked with Human Fc Block (BD). Then cells were incubated with fluorescence labeled antibody mixture (APC-Cy7 Mouse Anti-human CD3, PerCP-CyTM5.5 Anti-human CD4 and FITC anti-human CD8) for 15 minutes at 4° C. After washing the cells once with PBS supplemented with 2% FBS, cells were aliquoted to 96-well plates at 2×10⁵ cells per well, and cells were incubated with serial diluted bispecific, SAFE-bispecific or IgG1 isotype control antibodies for 30 minutes at 4° C. After washing the cells twice with PBS supplemented with 2% FBS, cell surface bound antibody was detected by incubating the cells with APC-labeled mouse anti-human IgG Fc secondary antibody for 30 minutes at 4° C. Cells were washed and detected by FACS using Cytoflex (BeckMan) and data was analyzed by FlowJo. The mean fluorescence (MFI) of each antibody binding to human or monkey CD4+ T cells and CD8+ T cell populations were fitted with four-parameter non-linear regression to get EC₅₀ values by GraphPad Prism software.
# [4] = biological target: T4, cynomolgus monkey CD3 on T cells; experiment: flow cytometry, monkey CD3+ T cells
# Description: as §1
# [5] = biological target: T3, human CD3 on cells (Jurkat cells, human …); experiment: binding to human CD4+ T cells
# [6] = biological target: T2, cynomolgus monkey CD20 on B cells; experiment: flow cytometry, monkey B cells
# [7] = biological target: T3, human CD3 on cells (Jurkat cells, human …); experiment: binding to human CD8+ T cells
# [8] = biological target: T3, human CD3 on cells (Jurkat cells, human …); experiment: binding to human CD3+ T cells
# [9] = biological target: T4, cynomolgus monkey CD3 on T cells; experiment: flow cytometry, monkey CD8+ T cells
# Protocol: as §2
# [10] = biological target: T3, human CD3 on cells (Jurkat cells, human …); experiment: flow cytometry on Jurkat cells, APC anti-human IgG secondary antibody
# Protocol: The Jurkat cells were thawed, washed, and cultured in an incubator. Jurkat cells were washed and 1×10⁵ Jurkat cells/well were aliquoted into 96-well plate and incubated with test articles for 1 hour at 4° C. After centrifugation and washing, Jurkat cells were further incubated with the secondary antibody APC anti-Human IgG for 30 minutes at 4° C. After centrifugation and washing, the Jurkat cells labelled with antibodies were re-suspended in 2% FBS DPBS and then were analyzed by FACS.
# [11] = biological target: T3, human CD3 on cells (Jurkat cells, human …); experiment: cell-based or functional assay
binding result [1],EC50 [2] [nM],max MFI [2] [MFI],EC50 [3] [nM],EC50 [4] [nM],max MFI [4] [MFI],EC50 [5] [nM],EC50 [6] [nM],EC50 [7] [nM],EC50 [8] [nM],EC50 [9] [nM],EC50 (read off the curve) [10],Jurkat NFAT reporter assay EC50 [11] [nM],Masking efficiency (Jurkat NFAT reporter assay) [11] [fold],Binder
binds,9.52,4850,27.3,10.5,2100,18.1,39.1,25.4,21.7,82.1,,,,"TY25455 (bispecific antibody, human IgG1, kappa, N297A, also called parental CD20xCD3 bispecific antibody of TY25606; TY2455) light: QIVLSQSPAILSASPGEKVTMTCRASSSVSYIHWFQQKPGKSPKPWIYATSNLASGVPVRFSGSGSGTSYSLTISRVEAEDAATYYCQQWTSNPPTFGGGTKVEIKRTVAAPSVFIFPPSDEQLKSGTASVVCLLNNFYPREAKVQWKVDNALQSGNSQESVTEQDSKDSTYSLSSTLTLSKADYEKHKVYACEVTHQGLSSPVTKSFNRGEC heavy: EVQLVQSGAEVKKPGSSVKVSCKASGYTFTSYNMHWVRQAPGKGLEWIGAIYPGSGDTSYNQKFKGRVTITADKSTSTAYMELSSLRSEDTAVYYCARSTYYGGDWYFNVWGQGTLVTVSSASTKGPSVFPLAPSSKSTSGGTAALGCLVKDYFPEPVTVSWNSGALTSGVHTFPAVLQSSGLYSLSSVVTVPSSSLGTQTYICNVNHKPSNTKVDKKVEPKSCDKTHTCPPCPAPELLGGPSVFLFPPKPKDTLMISRTPEVTCVVVDVSHEDPEVKFNWYVDGVEVHNAKTKPREEQYASTYRVVSVLTVLHQDWLNGKEYKCKVSNKALPAPIEKTISKAKGQPREPQVYTLPPSRKKLTKNQVKLTCLVKGFYPSDIAVEWESNGQPENNYKTTPPVLDCDGSFFLYSKLTVDKSRWQQGNVFSCSVMHEALHNHYTQKSLSLSPGK QAVVTQEPSLTVSPGGTVTLTCGSSTGAVTTSNYPNWVQQKPGQAPRGLIGGTNKRAPGVPARFSGSLLGGKAALTLSGAQPEDEAEYYCALWYSNLWVFGGGTKLTVLGGGGSGGGGSGGGGSGGGGSEVQLVESGGGLVQPGGSLRLSCAASGFTFNTYAINWVRQAPGKGLEWVGRIRSKYNNYATYYAESVKGRFTISRDDSKNTLYLQINSLRAEDTAVYYCVRHGNFGTSYVSWFAYWGQGTLVTVSSEPKSSDKTHTCPPCPAPELLGGPSVFLFPPKPKDTLMISRTPEVTCVVVDVSHEDPEVKFNWYVDGVEVHNAKTKPREEQYASTYRVVSVLTVLHQDWLNGKEYKCKVSNKALPAPIEKTISKAKGQPREPQVYTDPPSRDELTKNQVSLTCLVDGFYPSDIAVEWESNGQPENCYKTTPPVLDSDGSFFLYSKLTVDKSRWQQGNVFSCSVMHEALHNHYTQDSLSLSPGK"
,,,,,,,,,,,~0.7 nM and ~0.3 nM and ~0.5 nM and ~0.6 nM,0.02,1,"TAC2225 (antibody, V domains shown, also called parental cross-reactive anti-CD3 antibody; humanized SP34) VH: EVQLVESGGGLVQPGGSLRLSCAASGFTFNTYAMNWVRQAPGKGLEWVGRIRSKYNNYATYYADSVKGRFTISRDDSKNTLYLQMNSLRAEDTAVYYCVRHGNFGNSYVSWFAYWGQGTLVTVSS VL: QAVVTQEPSLTVSPGGTVTLTCGSSTGAVTTSNYANWVQQKPGQAPRGLIGGTNKRAPGVPARFSGSLLGGKAALTLSGAQPEDEAEYYCALWYSNLWVFGGGTKLTVL"
